T1: 6xHIS-Nba1_(202-289)-SNAP (S. cerevisiae, UniProt Q08229 202-289)
T1 construct: Nba1, S. cerevisiae, residues 202-289; also called the PxxP site; source: E. coli BL21DE3, purified (HisTrap HP, size-exclusion chromatography); not shown: 6xHIS, N-terminal, kept; SNAP-tag, C-terminal, kept
T1 sequence (looked up): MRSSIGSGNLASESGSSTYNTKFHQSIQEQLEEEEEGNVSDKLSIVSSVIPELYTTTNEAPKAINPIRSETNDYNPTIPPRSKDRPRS

B1: GST-SH3_(Boi2) (domain or fragment, S. cerevisiae, UniProt P39969 43-107, looked up)
chain: GNFPMYIAINEYFKRMEDELDMKPGDKIKVITDDEEYKDGWYFGRNLRTNEEGLYPVVFTQKITV
notes: SH3 domain of Boi2, S. cerevisiae; source: E. coli BL21DE3, purified (GSTrap, Superdex 200); not shown: GST, N-terminal, kept
B2: GST-SH3_(Boi1) (domain or fragment, S. cerevisiae, UniProt P38041 13-77, looked up)
chain: KSFPLYIAVNQYSKRMEDELNMKPGDKIKVITDDGEYNDGWYYGRNLRTKEEGLYPAVFTKRIAI
notes: SH3 domain of Boi1, S. cerevisiae; also called GST fusion to SH3_(Boi1); source: E. coli BL21DE3, purified (GSTrap, Superdex 200) for SPR; coupled to glutathione beads from extract for the pull-down; not shown: GST, N-terminal, kept

Biological target: T1, 6xHIS-Nba1_(202-289)-SNAP
Assay: SPR; Biacore X100; GST-SH3 domains captured on an anti-GST antibody CM5 chip, free GST on the reference cell; 6xHis-Nba1_(202-289)-SNAP as analyte; HBSEP buffer (10 mM Hepes, 150 mM NaCl, 3 mM EDTA, 0.05% Tween 20, pH 7.4); equilibrium KD
Details: both partners purified

Binder | Kd [µM]
B1 | 1.97
B2 | ~0.74

From PMC7409549, “A time-resolved interaction analysis of Bem1 reconstructs the flow of Cdc42 during polar growth” (Life Science Alliance, 2020)
